Test results from PMC4288057, “Garlic γ-glutamyl transpeptidases that catalyze deglutamylation of biosynthetic intermediate of alliin” (Frontiers in Plant Science, 2015).

B1: AsGGT2 (Allium sativum) (protein)
chain: MEPAHDDLESSLLRYRPLHNDHTTVRRYPIIIIVATFVVFGLLFSIQFNLDNSERVYELKTKSGGEVVQSEVGVVAADDGYCSETGASILRKGGHAVDALVATAICEGIRHPMSSGIGGGAFIVVRSAKDGKAFAFDARETAPIASSRDMYQNNHSDKCLGPLSIGIPGEVAGLHAIWKMYGKLPWKSLFQPSIDLLRNGFKIVPYLDMSIREHADKILSDPGLREVFAPNGRLLRLNDTLYNYRLVNSLETIAREGPQALYSGSIGEKFIQDVRDLGGIITMDDMENYKVEVTEALSGNALGYTIIGMPPPSTGTVGISMVLNILGSYKTLDAVKGLIGIHRLIEAIKHTLGMRMNLGDPNFVNITEYVNDMLSPTYAEKVKERIFDNTTFDLSYYSNKWSQLSDHGTSHVSIVDSERNAVSFTSTINEYFGAGVMSPATGIIANNEMCDFATPTDETVDDIPPAPTNFIEPNKRPLSSMSPLIILKDDNLAGVIGASGGMNIIPAIAQVLINYFILGMDPLKAVQYPRFYHRFTPNVVLYENYTAVNGENFMFPEAAIKFLEERHHQLQMKAGVAAVCQFVVQNLTESGSSNANMKNGGHLRGMLTAVSDPRKDGSPACV
notes: full-length coding region (622 aa), no tag, pYES2 in Saccharomyces cerevisiae BJ2168, crude yeast protein extract
B2: AsGGT1 (Allium sativum) (protein)
chain: MNQMAPASSDQKLGTSLIVRENSTDRRFALHWILILAALTTLFALGLHLSSVQYRGSEELGEFRKGLKSTGGSDAVESEKGVVAADDGYCSEIGASVLRKGGHAVDAVVATAICEGVRHPMSSGIGGGAFMVVRSAKDGKALAFDARETAPLAASKDMYQNNPLAKSLGPLSMGIPGEIAGLHAAWLLYGKLPWKSLFEPSITLLKNGVKIEPYLALSINDNKDKIMSDPGLAEVFAPNGKLLQLNDTFYNFKLADSLEAIAEEGPQAFYNGSIGQKFIQDIRNLGGIVTMNDMRKYTVEITEPLYSDVLGYTLVGMPLPSSGTLGVSMVLNILGSYETLNAMKGFHGLHRLIEAVKHTLAIRMNLGDSKFVNCTKYVDDMLSPTYAEQVKERIFDNTTFDPSYYLNRWSQIRDHGTSHMSIVDSERNAVAFTSTVNMYFGGGVMSPSTGIVANNEMDDFSIPTDATEDGLPPAPSNFIEPNKRPLSSMSPLIILKDNQLAGVLGASGGMNIIPAVSQVFINHFVLGVDPLKAVQHPRFYHTLIPNLVQYENWTALDGELFEFSEAAKEFLAKRNHQLQMKSGAGAVCQFVVQNLTSSNSNKETDGIIRGMLTAVSDPRKDGSPACV
notes: full-length coding region (627 aa), no tag, pYES2 in Saccharomyces cerevisiae BJ2168, crude yeast protein extract
B3: AsGGT3 (Allium sativum) (protein)
chain: MLINSYPAYHCFPHTEEFHQNFMPAYITKWLAVTLLLLVFYKPILAGDEIRHRREVITSKNGAVASDDGRCSVIGTDVLKEGGNAIDAAVAASFCLGVVSAASSGIGGGAFMLIRMANGEAHAIDMRETAPLHASQNMYNGNAILKGSGILSVAVPGEIAGLHKAWKQHGKLPWKRLVMPAAKIAKAGFEISKYLYMQMNRTKSEILKDKGMQDIYASNGTLLNPGDICRNKELACTLREIAVHGPKVFYNGSVGIKLVKDIQKLGGILTLNDLKNYRVKVNKPISANVMGYEILGMPPPSSGGAGMILILNILAQYGIPSGVSGSLGLHRFIESLKHMMAIRMNLGDPEFVNVSQVLSEMLSPKFAEDLKKRIYDNMTFDPSYYGPKWNLVNDHGTSHLSIVDSERNAVSMTSTVNSYFGAGIVSPSTGIVLNNEMDDFSIPSNSSNNNMPPPAPANFIAPLKRPLSSMSPTVVLKDGKLVASLGASGGGMIIAAATHIFLKLFAEKLDPLASALSPRSYHQLIPNVVQYEDWMTVIGDHFLVAEKERAALEKKGHVLKPLAGGTICQFVIQGADDAKELGLGIANGDLMAISDPRKGGIPDGY
notes: full-length coding region (605 aa), no tag, pYES2 in Saccharomyces cerevisiae BJ2168, crude yeast protein extract

substrate: C=CCSC[C@H](NC(=O)CC[C@H](N)C(=O)O)C(=O)O; test: HPLC of S-allyl-L-cysteine formed, crude yeast extract; format: biochemical, Allium sativum; conditions: 10 mM glycylglycine as acceptor, 50 mM Tris-HCl pH 8.0 (standard assay), 37°C, 6 h

In order of rising Km:
1. B2  86 µM
2. B1  1100 µM
3. B3  9400 µM
